Numbered stars: 1 amine (or outer) side, 2 acyl side, 3 side chain; on linkers, the order of the positions; unused ones are H or OH. Square brackets hold non-standard residues; d marks the D form. * marks the point of attachment. hPhe(2,4-di-NO2) = 2,4-di-NO2 homophenylalanine, O=C([C@H](CCc1ccc([N+](=O)[O-])cc1[N+](=O)[O-])N[*:1])[*:2]; Phe(4-NHAc) = 4-acetamidophenylalanine, CC(=O)Nc1ccc(C[C@H](N[*:1])C(=O)[*:2])cc1; Phe(4-CH2SO3H) = N[C@@H](Cc1ccc(CS(=O)(=O)O)cc1)C(=O)O; Phe(4-NO2) = N[C@@H](Cc1ccc([N+](=O)[O-])cc1)C(=O)O; Phe(4-CH2NH2) = NCc1ccc(C[C@H](N)C(=O)O)cc1; Tyr(3-Cl) = N[C@@H](Cc1ccc(O)c(Cl)c1)C(=O)O; Dmt = Cc1cc(O)cc(C)c1C[C@H](N)C(=O)O; Dab = NCC[C@H](N)C(=O)O; Dap = NC[C@H](N)C(=O)O; Hexanoyl = CCCCCC(=O)*; Propionyl = CCC(=O)*
B1: VII-63-B (peptide)
peptide: Ac-RY[Phe(4-NO2)]RWR-NH2
SMILES: CC(=O)N[C@@H](CCCNC(=N)N)C(=O)N[C@@H](Cc1ccc(O)cc1)C(=O)N[C@@H](Cc1ccc([N+](=O)[O-])cc1)C(=O)N[C@@H](CCCNC(=N)N)C(=O)N[C@@H](Cc1c[nH]c2ccccc12)C(=O)N[C@@H](CCCNC(=N)N)C(N)=O
notes: also called Ac-Arg-Tyr-Phe(4-NO2)-Arg-Trp-Arg-NH2
B2: IV-21-C Propionyl-AYYRWR-NH2 (peptide)
peptide: Propionyl-AYYRWR-NH2
SMILES: CCC(=O)N[C@@H](C)C(=O)N[C@@H](Cc1ccc(O)cc1)C(=O)N[C@@H](Cc1ccc(O)cc1)C(=O)N[C@@H](CCCNC(=N)N)C(=O)N[C@@H](Cc1c[nH]c2ccccc12)C(=O)N[C@@H](CCCNC(=N)N)C(N)=O
B3: IV-25-B Propionyl-RYARWR-NH2 (peptide)
peptide: Propionyl-RYARWR-NH2
SMILES: CCC(=O)N[C@@H](CCCNC(=N)N)C(=O)N[C@@H](Cc1ccc(O)cc1)C(=O)N[C@@H](C)C(=O)N[C@@H](CCCNC(=N)N)C(=O)N[C@@H](Cc1c[nH]c2ccccc12)C(=O)N[C@@H](CCCNC(=N)N)C(N)=O
B4: IV-33-B Hexanoyl-AYYRWR-NH2 (peptide)
peptide: Hexanoyl-AYYRWR-NH2
SMILES: CCCCCC(=O)N[C@@H](C)C(=O)N[C@@H](Cc1ccc(O)cc1)C(=O)N[C@@H](Cc1ccc(O)cc1)C(=O)N[C@@H](CCCNC(=N)N)C(=O)N[C@@H](Cc1c[nH]c2ccccc12)C(=O)N[C@@H](CCCNC(=N)N)C(N)=O
B5: IV-39-B Hexanoyl-RYYAWR-NH2 (peptide)
peptide: Hexanoyl-RYYAWR-NH2
SMILES: CCCCCC(=O)N[C@@H](CCCNC(=N)N)C(=O)N[C@@H](Cc1ccc(O)cc1)C(=O)N[C@@H](Cc1ccc(O)cc1)C(=O)N[C@@H](C)C(=O)N[C@@H](Cc1c[nH]c2ccccc12)C(=O)N[C@@H](CCCNC(=N)N)C(N)=O
B6: IV-35-B Hexanoyl-RAYRWR-NH2 (peptide)
peptide: Hexanoyl-RAYRWR-NH2
SMILES: CCCCCC(=O)N[C@@H](CCCNC(=N)N)C(=O)N[C@@H](C)C(=O)N[C@@H](Cc1ccc(O)cc1)C(=O)N[C@@H](CCCNC(=N)N)C(=O)N[C@@H](Cc1c[nH]c2ccccc12)C(=O)N[C@@H](CCCNC(=N)N)C(N)=O
B7: IV-27-B Propionyl-RYYAWR-NH2 (peptide)
peptide: Propionyl-RYYAWR-NH2
SMILES: CCC(=O)N[C@@H](CCCNC(=N)N)C(=O)N[C@@H](Cc1ccc(O)cc1)C(=O)N[C@@H](Cc1ccc(O)cc1)C(=O)N[C@@H](C)C(=O)N[C@@H](Cc1c[nH]c2ccccc12)C(=O)N[C@@H](CCCNC(=N)N)C(N)=O
B8: IV-29-B Propionyl-RYYRAR-NH2 (peptide)
peptide: Propionyl-RYYRAR-NH2
SMILES: CCC(=O)N[C@@H](CCCNC(=N)N)C(=O)N[C@@H](Cc1ccc(O)cc1)C(=O)N[C@@H](Cc1ccc(O)cc1)C(=O)N[C@@H](CCCNC(=N)N)C(=O)N[C@@H](C)C(=O)N[C@@H](CCCNC(=N)N)C(N)=O
B9: IV-31-B Propionyl-RYYRWA-NH2 (peptide)
peptide: Propionyl-RYYRWA-NH2
SMILES: CCC(=O)N[C@@H](CCCNC(=N)N)C(=O)N[C@@H](Cc1ccc(O)cc1)C(=O)N[C@@H](Cc1ccc(O)cc1)C(=O)N[C@@H](CCCNC(=N)N)C(=O)N[C@@H](Cc1c[nH]c2ccccc12)C(=O)N[C@@H](C)C(N)=O
B10: IV-23-B Propionyl-RAYRWR-NH2 (peptide)
peptide: Propionyl-RAYRWR-NH2
SMILES: CCC(=O)N[C@@H](CCCNC(=N)N)C(=O)N[C@@H](C)C(=O)N[C@@H](Cc1ccc(O)cc1)C(=O)N[C@@H](CCCNC(=N)N)C(=O)N[C@@H](Cc1c[nH]c2ccccc12)C(=O)N[C@@H](CCCNC(=N)N)C(N)=O
B11: IV-41-B Hexanoyl-RYYRAR-NH2 (peptide)
peptide: Hexanoyl-RYYRAR-NH2
SMILES: CCCCCC(=O)N[C@@H](CCCNC(=N)N)C(=O)N[C@@H](Cc1ccc(O)cc1)C(=O)N[C@@H](Cc1ccc(O)cc1)C(=O)N[C@@H](CCCNC(=N)N)C(=O)N[C@@H](C)C(=O)N[C@@H](CCCNC(=N)N)C(N)=O
B12: IV-43-B Hexanoyl-RYYRWA-NH2 (peptide)
peptide: Hexanoyl-RYYRWA-NH2
SMILES: CCCCCC(=O)N[C@@H](CCCNC(=N)N)C(=O)N[C@@H](Cc1ccc(O)cc1)C(=O)N[C@@H](Cc1ccc(O)cc1)C(=O)N[C@@H](CCCNC(=N)N)C(=O)N[C@@H](Cc1c[nH]c2ccccc12)C(=O)N[C@@H](C)C(N)=O
B13: IV-37-B Hexanoyl-RYARWR-NH2 (peptide)
peptide: Hexanoyl-RYARWR-NH2
SMILES: CCCCCC(=O)N[C@@H](CCCNC(=N)N)C(=O)N[C@@H](Cc1ccc(O)cc1)C(=O)N[C@@H](C)C(=O)N[C@@H](CCCNC(=N)N)C(=O)N[C@@H](Cc1c[nH]c2ccccc12)C(=O)N[C@@H](CCCNC(=N)N)C(N)=O
B14: VII-77-A (peptide)
peptide: Ac-RY[Phe(4-NHAc)]RWR-NH2
SMILES: CC(=O)Nc1ccc(C[C@H](NC(=O)[C@H](Cc2ccc(O)cc2)NC(=O)[C@H](CCCNC(=N)N)NC(C)=O)C(=O)N[C@@H](CCCNC(=N)N)C(=O)N[C@@H](Cc2c[nH]c3ccccc23)C(=O)N[C@@H](CCCNC(=N)N)C(N)=O)cc1
notes: also called Ac-Arg-Tyr-Phe(4-NHAc)-Arg-Trp-Arg-NH2
B15: VII-79-A (peptide)
peptide: Ac-RY[Phe(4-CH2NH2)]RWR-NH2
SMILES: CC(=O)N[C@@H](CCCNC(=N)N)C(=O)N[C@@H](Cc1ccc(O)cc1)C(=O)N[C@@H](Cc1ccc(CN)cc1)C(=O)N[C@@H](CCCNC(=N)N)C(=O)N[C@@H](Cc1c[nH]c2ccccc12)C(=O)N[C@@H](CCCNC(=N)N)C(N)=O
notes: also called Ac-Arg-Tyr-Phe(4-CH2NH2)-Arg-Trp-Arg-NH2
B16: VII-75-B (peptide)
peptide: Ac-RY[Phe(4-CH2SO3H)]RWR-NH2
SMILES: CC(=O)N[C@@H](CCCNC(=N)N)C(=O)N[C@@H](Cc1ccc(O)cc1)C(=O)N[C@@H](Cc1ccc(CS(=O)(=O)O)cc1)C(=O)N[C@@H](CCCNC(=N)N)C(=O)N[C@@H](Cc1c[nH]c2ccccc12)C(=O)N[C@@H](CCCNC(=N)N)C(N)=O
notes: also called Ac-Arg-Tyr-Phe(4-CH2SO3H)-Arg-Trp-Arg-NH2
B17: VII-67-A (peptide)
peptide: Ac-[Dab]YYRWR-NH2
SMILES: CC(=O)N[C@@H](CCN)C(=O)N[C@@H](Cc1ccc(O)cc1)C(=O)N[C@@H](Cc1ccc(O)cc1)C(=O)N[C@@H](CCCNC(=N)N)C(=O)N[C@@H](Cc1c[nH]c2ccccc12)C(=O)N[C@@H](CCCNC(=N)N)C(N)=O
notes: also called Ac-Dab-Tyr-Tyr-Arg-Trp-Arg-NH2
B18: VII-73-A (peptide)
peptide: Ac-RY[Dmt]RWR-NH2
SMILES: CC(=O)N[C@@H](CCCNC(=N)N)C(=O)N[C@@H](Cc1ccc(O)cc1)C(=O)N[C@@H](Cc1c(C)cc(O)cc1C)C(=O)N[C@@H](CCCNC(=N)N)C(=O)N[C@@H](Cc1c[nH]c2ccccc12)C(=O)N[C@@H](CCCNC(=N)N)C(N)=O
notes: also called Ac-Arg-Tyr-Tyr(2,6-di-Me)-Arg-Trp-Arg-NH2
B19: VII-65-F (peptide)
peptide: Ac-[Dap]YYRWR-NH2
SMILES: CC(=O)N[C@@H](CN)C(=O)N[C@@H](Cc1ccc(O)cc1)C(=O)N[C@@H](Cc1ccc(O)cc1)C(=O)N[C@@H](CCCNC(=N)N)C(=O)N[C@@H](Cc1c[nH]c2ccccc12)C(=O)N[C@@H](CCCNC(=N)N)C(N)=O
notes: also called Ac-Dap-Tyr-Tyr-Arg-Trp-Arg-NH2
B20: VII-71-B (peptide)
peptide: Ac-RY[hPhe(2,4-di-NO2)]RWR-NH2
SMILES: CC(=O)N[C@@H](CCCNC(=N)N)C(=O)N[C@@H](Cc1ccc(O)cc1)C(=O)N[C@@H](CCc1ccc([N+](=O)[O-])cc1[N+](=O)[O-])C(=O)N[C@@H](CCCNC(=N)N)C(=O)N[C@@H](Cc1c[nH]c2ccccc12)C(=O)N[C@@H](CCCNC(=N)N)C(N)=O
notes: also called Ac-Arg-Tyr-hPhe(2,4-di-NO2)-Arg-Trp-Arg-NH2
B21: VII-87-B (peptide)
peptide: Ac-R[Tyr(3-Cl)]YRWR-NH2
SMILES: CC(=O)N[C@@H](CCCNC(=N)N)C(=O)N[C@@H](Cc1ccc(O)c(Cl)c1)C(=O)N[C@@H](Cc1ccc(O)cc1)C(=O)N[C@@H](CCCNC(=N)N)C(=O)N[C@@H](Cc1c[nH]c2ccccc12)C(=O)N[C@@H](CCCNC(=N)N)C(N)=O
notes: also called Ac-Arg-Tyr(3-Cl)-Tyr-Arg-Trp-Arg-NH2

Columns and labels:
[1] = target: T1, human ORL-1 receptor (opioid receptor like 1) (human, UniProt P41146 1-370); assay: cell-based or functional assay
T1 sequence (P41146 whole entry): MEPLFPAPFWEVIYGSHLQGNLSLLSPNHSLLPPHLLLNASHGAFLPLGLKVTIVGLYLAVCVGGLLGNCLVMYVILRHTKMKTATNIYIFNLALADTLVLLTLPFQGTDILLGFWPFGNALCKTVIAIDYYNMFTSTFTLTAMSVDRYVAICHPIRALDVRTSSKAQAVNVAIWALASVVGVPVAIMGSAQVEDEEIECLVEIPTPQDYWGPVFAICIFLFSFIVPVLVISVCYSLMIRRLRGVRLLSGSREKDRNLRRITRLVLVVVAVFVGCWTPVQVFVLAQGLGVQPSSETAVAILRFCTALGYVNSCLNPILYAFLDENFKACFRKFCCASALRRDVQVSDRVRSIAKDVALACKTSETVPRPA

[2] = target: T1, human ORL-1 receptor (opioid receptor …); assay: [3H]nociceptin displacement, membranes of CHO cells transfected with human ORL-1; Ki=IC50/(1+L/Kd)
Description: Receptor binding studies were conducted on human ORL1 (opiate receptor like 1) transfected into Chinese hamster ovary (CHO) cells using each of the hexapeptide analog compounds of Table 3. All the compounds were evaluated for binding affinities. […] The data shown in Table 5 represents the average±SEM of at least two experiments conducted in triplicate.
Cells are removed from the plates by scraping with a rubber policeman, and then homogenized in Tris buffer using a Polytron homogenizer. Following this homogenization step, the cellular mixture is centrifuged once and washed by an additional centrifugation at 40,000×g for 15 min. The pellet formed during the centrifugation is re-suspended in 50 mM Tris, pH 7.5. […] Samples of the suspension are then filtered over glass fiber filters using a Wallac cell harvester.
For the data in Table 5, binding was conducted as described above. IC₅₀ values and Hill coefficients were determined using the curve-fitting program Prism. K₁ values were calculated using the equation K₁=IC₅₀/(1+[L]/Kd). […] The data in Table 5 represent the average±SEM of at least two experiments conducted in triplicate.

[3] = target: T1, human ORL-1 receptor (opioid receptor …); assay: binding assay at ORL1 (taken as [3H]nociceptin displacement as in Table 1)

Binder	% Stimulation of [35S]GTPγS binding [1] [%]	EC50 (nM) of stimulation of [35S]GTPγS binding [1] [nM]	Ki [2] [nM]	IC50 [3] [nM]
B1	43.2	3.2	0.17	
B2				1780
B3				495
B4				1020
B5				1000
B6				113
B7				400
B8				1890
B9				76
B10				182
B11				710
B12				311
B13				79
B14	19	115	0.88	
B15	< 20		2.54	
B16	< 20		26.7	
B17	< 20		5.59	
B18	52.7	5.2	0.04	
B19	13.7		28.1	
B20	33.6	7.5	0.63	
B21	72	3.9	0.26	
